Experimental data taken from US10724034B2, “Genetic encoding of chemical post-translational modification for phage-displayed libraries” (THE GOVERNORS OF THE UNIVERSITY OF ALBERTA, priority 2014, dated 2020).
One block for each molecule: values may come before it. Ends that are not written are not given here. SA = 4-(aminooxymethyl)benzenesulfonamide joined by oxime ligation to the periodate-oxidised N-terminal serine; Glu = glucose (not glutamate); Gal = galactose; Rha = rhamnose

Tests used:
human Galectin-3 = human Galectin-3 (Homo sapiens, UniProt P17931); test: ELISA-like competition assay: inhibition of HRP-Lactose binding to surface-immobilized Galectin-3; conditions: for Times more potent than MeGal at inhibiting HRP-Lac binding to Galectin-3: versus MeGal
Source text: Using an ELISA-like competition assay (FIGS. 12, 13), the binding activity of these glycopeptides to carbohydrate recognition domain (CRD) of the human Galectin-3 and their ability to compete with binding of Lactose-conjugated horseradish peroxidase (HRP), were validated (FIG. 12). As references, we used known Gal3 ligands, such as lactose, Methyl-β-D-galactopiranoside (MeGal) and tetrasaccharide Lacto-N-Tetraose (LNT).
FIG. 12 illustrates an evaluation of activity of hits identified from genetically-encoded libraries of glycopeptides against […]. The assay measures that inhibitory constant (denoted as Effective concentrations of half-maximal response or EC50) of compounds in the inhibition of the interaction between soluble HRP-Lactose and surface-immobilized Galectin-3.
The competitive activity is quantified as decrease in color development by HRP-lac conjugate bound to Galectin-3 coated at 10 μg/ml concentration on polystyrene 96-well plates.

human Galectin-3 protein [1] = biological target: T1, human Galectin-3 protein (human, UniProt P17931 2-250, limits assumed); test: ELISA-like competition with HRP-Lactose on Galectin-3 coated wells; reference MeGal
T1 construct: also called Gal3

human Galectin-3 protein [2] = biological target: T1, human Galectin-3 protein; test: ELISA-like competition with HRP-Lac on Galectin-3 coated plates; reference MeGal
human Galectin-3 protein [3] = biological target: T1, human Galectin-3 protein; test: ELISA-like competition with HRP-Lac on Galectin-3 coated plates; reference lactose
human Galectin-3 protein [4] = biological target: T1, human Galectin-3 protein; test: ELISA-like competition with HRP-Lac on immobilised Galectin-3; reference MeGal
In short: (§1)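 Polystyrene 96-well plates were coated at 10 μg/ml with the carbohydrate recognition domain of human Galectin-3 for an ELISA-like competition assay. A lactose-conjugated horseradish peroxidase probe was bound, and test molecules competed with it, with competition read as lower colour development. Values give the fold difference in inhibition relative to a known Galectin-3 reference ligand run in the same assay.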

human Galectin-3 protein [5] = biological target: T1, human Galectin-3 protein; test: ELISA-like competition with HRP-Lac on immobilised Galectin-3; reference lactose
In short: as §1

human Galectin-3 protein [6] = biological target: T1, human Galectin-3 protein; test: ELISA-like competition with HRP-Lac on immobilised Galectin-3; reference Lacto-N-Tetraose
In short: as §1

human Galectin-3 protein [7] = biological target: T1, human Galectin-3 protein; test: ELISA-like competition: inhibition of soluble HRP-Lactose binding to immobilised Galectin-3
In short: (§2)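 In an ELISA-like format, polystyrene 96-well plates carried the carbohydrate recognition domain of human Galectin-3, coated at 10 μg/ml. Test molecules competed with a lactose-conjugated horseradish peroxidase probe, measured as reduced colour development, and the half-maximal inhibitory concentration was derived from the resulting curves.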

human Galectin-3 protein [8] = biological target: T1, human Galectin-3 protein; test: competition ELISA: HRP-Lactose binding to plate-coated Galectin-3 [lower left panel]
In short: as §2

human Galectin-3 protein [9] = biological target: T1, human Galectin-3 protein; test: competition ELISA: HRP-Lactose binding to plate-coated Galectin-3 [lower right panel]
In short: as §2

human Galectin-3 protein [10] = biological target: T1, human Galectin-3 protein; test: competition ELISA: HRP-Lactose binding to plate-coated Galectin-3 [upper right panel]
In short: as §2

[11] = biological target: T2, Bovine carbonic anhydrase II (bovine, UniProt P00921 2-260); test: ITC, replicate [row SA-GGGG, right panel]
T2 construct: Commercial protein; also called BCA

[12] = biological target: T2, Bovine carbonic anhydrase II; test: ITC, replicate [row SA-GGGG, middle panel]
Experimental: (§3) FIG. 9 provides additional replicates of raw ITC data of sulfonamide-peptide (SA-XXXX) binding to carbonic anhydrase. Raw data obtained for 30 injections of ligands (20-95 μM) into a solution of carbonic anhydrase (2.5-12 μM) at 4-min intervals and 30° C. is shown.

[13] = biological target: T2, Bovine carbonic anhydrase II; test: isothermal titration calorimetry, 30 C, single binding site model; control peptide SA-GGGG (SEQ ID NO:101)
Experimental: as §3

[14] = biological target: T2, Bovine carbonic anhydrase II; test: ITC, replicate [row SA-TRPA, left panel]
[15] = biological target: T2, Bovine carbonic anhydrase II; test: ITC, replicate [row SA-TRPA, right panel]
Experimental: as §3

[16] = biological target: T2, Bovine carbonic anhydrase II; test: ITC, replicate [row SA-TRPA, middle panel]
Experimental: as §3

human Galectin-3 protein [17] = biological target: T1, human Galectin-3 protein; test: competition ELISA: HRP-Lactose binding to plate-coated Galectin-3 [upper left panel]
In short: as §2

[18] = biological target: T2, Bovine carbonic anhydrase II; test: isothermal titration calorimetry; reference SA-GGGG
Experimental: as §3

[19] = biological target: T2, Bovine carbonic anhydrase II; test: ITC, replicate [row SA-WIVP, right panel]
Experimental: as §3

[20] = biological target: T2, Bovine carbonic anhydrase II; test: ITC, replicate [row SA-WIVP, middle panel]
Experimental: as §3

[21] = biological target: T2, Bovine carbonic anhydrase II; test: isothermal titration calorimetry, 30 C, single binding site model; selected peptide SA-WIVP (SEQ ID NO:26)
Experimental: as §3

T1 sequence (P17931 2-250 limits assumed): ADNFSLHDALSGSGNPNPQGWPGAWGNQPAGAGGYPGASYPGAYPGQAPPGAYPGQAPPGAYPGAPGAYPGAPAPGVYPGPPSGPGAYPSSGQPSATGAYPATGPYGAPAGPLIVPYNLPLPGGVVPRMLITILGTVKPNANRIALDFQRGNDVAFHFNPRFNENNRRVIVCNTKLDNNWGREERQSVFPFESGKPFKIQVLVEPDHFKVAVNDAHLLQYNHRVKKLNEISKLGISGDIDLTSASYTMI
T2 sequence (P00921 2-260 limits assumed): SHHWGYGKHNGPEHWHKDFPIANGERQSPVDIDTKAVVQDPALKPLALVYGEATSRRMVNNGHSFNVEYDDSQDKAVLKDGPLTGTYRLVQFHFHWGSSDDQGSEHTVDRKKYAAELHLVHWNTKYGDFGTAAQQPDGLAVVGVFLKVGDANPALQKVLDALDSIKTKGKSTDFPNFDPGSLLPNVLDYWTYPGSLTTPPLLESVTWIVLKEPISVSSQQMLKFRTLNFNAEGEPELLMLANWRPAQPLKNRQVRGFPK
human Galectin-3, sequence (P17931 whole entry, the tested form may be a part): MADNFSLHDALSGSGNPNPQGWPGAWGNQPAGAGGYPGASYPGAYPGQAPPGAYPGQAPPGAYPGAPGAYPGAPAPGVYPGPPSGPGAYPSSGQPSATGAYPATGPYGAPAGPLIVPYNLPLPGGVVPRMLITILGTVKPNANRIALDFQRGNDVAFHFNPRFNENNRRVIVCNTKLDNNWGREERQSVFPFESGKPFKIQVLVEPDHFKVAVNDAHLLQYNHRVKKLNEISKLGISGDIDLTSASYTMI

Molecule: Gal-PAPT: Galactose modified glycopeptide, SEQ ID NO:105
EC50 (human Galectin-3; FIG. 12, read-out: EC50, inhibition of interaction between soluble HRP-Lactose and surface-immobilized Galectin-3): 14 µM

Molecule: Glu-SIYG (glucose-modified tetramer peptide)
fold higher potency than MeGal (human Galectin-3 protein [1]): 10 fold

Molecule: Glu-SIYG: combination of glucose and tetramer peptide, SEQ ID NO:106 (also: residue 1 modified with glucose, attachment not given here)
Times more potent than MeGal at inhibiting HRP-Lac binding to Galectin-3 (human Galectin-3): 10 times

B1: Gal-PAPT (galactose-modified glycopeptide) (peptide)
peptide: Gal-PAPT
modifications: also: exact galactose derivative not given here
notes: Synthetic glycan-peptide conjugate; also called glycopeptide Gal-PAPT
fold better inhibition than MeGal (human Galectin-3 protein [4]): > 1500 fold
fold better inhibition than Lactose (human Galectin-3 protein [5]): 30 fold
fold better inhibition than LNT (human Galectin-3 protein [6]): 5 fold
EC50 (human Galectin-3 protein [7]): 14 µM
IC50 (read off the curve) (human Galectin-3 protein [8]): ~20 µM
IC50 (read off the curve) (human Galectin-3 protein [9]): ~20 µM
IC50 (read off the curve) (human Galectin-3 protein [10]): ~20 µM

B2: SA-GGGG (control sulfonamide-modified peptide) (peptide)
peptide: {SA}-GGGG-NH2
modifications: also: N-terminal SA cap oxime-linked, made from oxidised N-terminal Ser
notes: Control peptide in ITC; also called control peptide SA-GGGG
Kd [11]: 0.14 µM
Kd [12]: 0.13 µM
Kd [13]: 0.15 µM

Molecule: {SA}-TRPA-NH2 (also: N-terminal SA cap oxime-linked, made from oxidised N-terminal Ser) [SA-TRPA]
Kd [14]: 0.033 µM
Kd [15]: 0.038 µM
Kd [16]: 0.031 µM

Molecule: Rha-PQLP (not fully specified; printed as Rha-PQLP) [Rha-PQLP]
IC50 (read off the curve) (human Galectin-3 protein [17]): ~1000 µM

Further lines, results first:

fold more potent inhibitor than MeGal (human Galectin-3 protein [2]): 400 fold
fold better than Lactose control (human Galectin-3 protein [3]): 10 fold
Molecule: Rha-IWVR (rhamnose-peptide conjugate)

Potency in HRP-Lac competition compared in words with a control (human Galectin-3; comparison with Lactose, MeGal or LNT): in the same order of the LNT
Times better than Lactose at inhibiting HRP-Lac binding to Galectin-3 (human Galectin-3; versus Lactose): 10 times
Times more potent than MeGal at inhibiting HRP-Lac binding to Galectin-3 (human Galectin-3): 400 times
Molecule: Rha-IWVR: Rhamnose-peptide conjugate, SEQ ID NO:108 (also: residue 1 conjugated with rhamnose, attachment not given here)

fold stronger affinity than control peptide SA-GGGG [18]: 30 fold
Kd [19]: 0.006 µM
Kd [20]: 0.009 µM
Kd [21]: 0.005 µM
B3: SA-WIVP (sulfonamide-modified peptide) (peptide)
peptide: {SA}-WIVP-NH2
modifications: also: N-terminal SA cap oxime-linked, made from oxidised N-terminal Ser
notes: Synthetic conjugate made from the peptide S-WIVP; The N-terminal Ser is turned into the oxime-linked sulfonamide; also called sulfonamide-peptide; SA-XXXX
